# Molecular target: His-HAT1 (Homo sapiens) (UniProt O14929)
# Assay: ELONA
# Conditions: ELONA: PBS + 1 mM MgCl2 (selection buffer), 37 °C, 1 h; 100 ng HAT1/well adsorbed; 0.2% BSA block; aptamers heated 95 °C 10 min then ice 10 min
# Chain of UniProt O14929 (O14929 whole entry): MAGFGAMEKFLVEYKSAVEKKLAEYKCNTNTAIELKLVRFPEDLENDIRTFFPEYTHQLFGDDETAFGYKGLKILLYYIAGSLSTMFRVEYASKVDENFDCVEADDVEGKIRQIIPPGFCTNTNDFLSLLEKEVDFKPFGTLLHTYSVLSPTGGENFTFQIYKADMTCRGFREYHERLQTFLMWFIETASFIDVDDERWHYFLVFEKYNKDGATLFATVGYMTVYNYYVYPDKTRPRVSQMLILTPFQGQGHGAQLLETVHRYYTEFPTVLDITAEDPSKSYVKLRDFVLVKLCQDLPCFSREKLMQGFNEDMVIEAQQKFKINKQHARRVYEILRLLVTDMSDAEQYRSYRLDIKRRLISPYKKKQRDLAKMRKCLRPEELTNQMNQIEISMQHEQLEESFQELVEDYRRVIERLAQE
row,Sequence,Kd [nM]
1,GCGGATGAAGACTGGTGTCGAGGGGGGGGCGGGCGGGTGGGTTGGCTCTTCATGCCTGTGCCCTAAATACGAGCAAC [apHAT63 (63F)],38
2,GTTGCTCGTATTTAGGGCGGGGGGGCGGGGGAGGAGGTGGCGGGAATATCCATTGTCTACACCAGTCTTCATCCGC [apHAT610 (610R)],28.1
3,GCGGATGAAGACTGGTGTCGAGGGGGGGGCGGGCGGGTGGGTTGGCTCTTCATGCCTGTGCCC [apHAT63T],43.7
